First the molecules themselves.
B1: HDV Ribozyme (parent)
chain: GGCCGGCAUGGUCCCAGCCUCCUCGCUGGCGCCGGCUGGGCAACAUUCCGAGGGGACCGUCCCCUCGGUAAUGGCGAAUGGGACCCA

The variants in the data set derive from B1. The data set is described as follows: self-cleavage, relative activity (ratio to wild type); higher = more cleavage; co-transcriptional.
With A8U U23G, the self-cleavage worked out at 0.415.

On to U9C C75U, for which the self-cleavage was found to be 0.138. The figure for U9C C75A is 0.115; for U9A C48A it is 1.01. On to U9A C48U, for which the self-cleavage was 0.914. The figure for A8U G53A is 0.665. As to A8U G53U, the self-cleavage is 0.867. As for U9C G38C, the self-cleavage was found to be 0.107. In the case of U9A A70U, the self-cleavage was determined as 0.997. The figure for U9A A70C is 0.767; for U9A C41U it is 1.07.

With U9A C41G, the self-cleavage amounted to 0.831. For the variant U9C U47G, the self-cleavage was 1.42. Under U9C U47C stands 0.969; under U9A C14G, 0.604; under U9A C14U, 1.11. Under U9C G80U stands 0.193; under U9C G80A, 0.277. Under U9C G80C stands 0.256; under A8U G25U, 0.106. Regarding U9C U69C, the self-cleavage stood at 0.969. Under U9C U69A stands 1.02; under U9C U69G, 1.22. Turning to U9C G54A, the self-cleavage was 1.08.

Regarding A8U G76C, the self-cleavage was 0.965. In the case of U9C A83U, the self-cleavage turned out to be 0.525. Under U9C A83G stands 0.665.

On to U9C G10U, for which the self-cleavage is 0.731. The figure for A8U G11A is 0.151; for A8U U72C it is 0.443; for A8U U72G it is 0.289. The figure for A8U U72A is 0.369; for A8U G35A it is 0.426; for U9A A77C it is 0.383. The figure for U9A A77U is 0.506; for U9A C62G it is 0.939. Turning to U9A C62A, the self-cleavage was found to be 1.03. Under U9A G74U stands 0.585; under U9A G74C, 0.0573. On to U9C G28C, for which the self-cleavage worked out at 0.0573. For the variant U9C G28U, the self-cleavage stood at 0.123. As to U9C G82U, the self-cleavage came to 0.201. As for U9C C32A, the self-cleavage was determined as 0. On to U9C C32U, for which the self-cleavage turned out to be 0.862. Under U9A U12G stands 1.06. The figure for U9C U27C is 0.554. U9C U27A: the self-cleavage turned out to be 0.935.

U9C C84U: the self-cleavage stood at 0.415.

On to U9A G40A, for which the self-cleavage is 1.02. The figure for U9A G40U is 0.897. On to U9C C18G, for which the self-cleavage was found to be 0.138. For the variant U9C C18A, the self-cleavage is 0.128.

For the variant U9C C18U, the self-cleavage is 0.457. With U9A G67A, the self-cleavage was 0.937. Regarding U9A G67U, the self-cleavage was 0.849.

Turning to A8U C58U, the self-cleavage is 1.15. U9C G25A: the self-cleavage is 0.277.

Consider U9C G25C, for which the self-cleavage came out at 0.0615.

On to U9C C14A, for which the self-cleavage amounted to 0.982. Take U9A G54U: the self-cleavage amounted to 1.06.

For the variant U9A G54C, the self-cleavage came out at 0.935.

Consider U9G A42C, for which the self-cleavage was determined as 0.453. U9A G29U: the self-cleavage stood at 0.0639. Consider U9A G29A, for which the self-cleavage came to 0.0678. Under U9C A16U stands 1.08. Consider U9C A16C, for which the self-cleavage worked out at 0.519.

As for U9A A83G, the self-cleavage came out at 0.67. On to U9A A83U, for which the self-cleavage amounted to 0.643. The figure for U9C C30G is 0.0462; for U9C G68A it is 1.17.

With U9C G68U, the self-cleavage is 0.655. The figure for U9A C30G is 0.138. With U9A C30A, the self-cleavage was determined as 0.732. As to U9A C30U, the self-cleavage was 0.776. Under A8U G17C stands 0.0755; under U9G A45G, 0.684; under U9G A45U, 0.692. Under U9C G11U stands 0.383; under U9C G11C, 0.266. Under U9A C61G stands 0.682. Regarding U9A C61U, the self-cleavage stood at 0.986. Under A8U G39A stands 0.318; under U9C C15U, 0.776. Under U9C C15A stands 0.748; under U9C U65G, 1.37; under U9C U65C, 1.22.

For the variant U9C U65A, the self-cleavage came out at 1.25.

As to U9A U27G, the self-cleavage is 1.13. The figure for U9A G82A is 0.425; for U9A G82U it is 0.375. Under U9A U69C stands 0.802; under U9A U69A, 0.87; under U9C G31C, 0.598. Regarding A8U G38U, the self-cleavage is 0.326. In the case of A8U G38A, the self-cleavage came out at 0.141. The figure for A8U G38C is 0.095; for U9C G76A it is 1.05; for U9C G76U it is 1.05. Under U9A G28C stands 0; under U9A G28U, 0.0898. U9A G35A: the self-cleavage was determined as 0.665.

U9A G35C: the self-cleavage was 0.44. The figure for U9A U60A is 0.923; for U9G A16G it is 1.42; for U9G A16C it is 0.712. A8U G68U: the self-cleavage came to 0.858. The figure for A8U G68C is 0.752; for U9A U37C it is 1.07.

Take U9C C61U: the self-cleavage is 0.81. Under U9C C61A stands 1.03. Under U9C U60G stands 0.723; under A8U G73C, 0.0831; under A8U G73A, 0.323. For A8U G73U, the self-cleavage came to 0.199. The figure for A8U G52A is 0.692. The figure for A8U G52U is 0.872; for U9C C57A it is 1.09; for U9C G59U it is 1.17. Turning to U9C G59A, the self-cleavage was found to be 1.05. Under U9C G59C stands 1.09; under A8U C64A, 0.538. Under A8U G74C stands 0.166. The figure for U9C A43C is 0.378; for U9C A43U it is 0.378. For U9C C48U, the self-cleavage came to 0.748. With U9C C48G, the self-cleavage is 1.44. Turning to U9C C44U, the self-cleavage was 0.739.

U9C C44A: the self-cleavage amounted to 0.594. The figure for U9C G53U is 1.26; for U9C G53A it is 1.01; for U9A G10U it is 0.855. Under U9A G10C stands 0.875; under U9A U23G, 0.7.

For the variant U9C C58U, the self-cleavage was 0.886. As for U9C C58A, the self-cleavage was 1.11. The figure for U9A G53A is 1.2. Regarding U9A G53U, the self-cleavage amounted to 1.28.

As to U9A C66A, the self-cleavage worked out at 0.95. The figure for A8U G40C is 0.234; for A8U G40U it is 0.415; for U9A G50A it is 1.12. Take U9A G50C: the self-cleavage turned out to be 0.898. Regarding U9A G50U, the self-cleavage turned out to be 1.31.

Turning to A8U U20A, the self-cleavage stood at 0.166. Under A8U U20C stands 0. Under U9C C41U stands 1.05; under U9C U79G, 0.519.

As to U9A U46A, the self-cleavage stood at 0.743. U9C C26A: the self-cleavage turned out to be 1.25. The figure for U9A C64G is 0.759; for U9A C64U it is 1.04. With U9C U46A, the self-cleavage was 1.06.

U9A C75G: the self-cleavage is 0.0665.

For the variant A8U C61G, the self-cleavage was found to be 0.623. Consider A8U G10U, for which the self-cleavage was 0.341. For A8U G10A, the self-cleavage turned out to be 0.684.

Consider U9C A78G, for which the self-cleavage came to 0.914.

Consider U9C A78U, for which the self-cleavage was found to be 0.185.

U9A G11C: the self-cleavage turned out to be 0.609. As for U9A G11A, the self-cleavage was 0.539. Under U9C C85G stands 0.731; under U9C C85U, 1.07; under U9A C33U, 0.808. For the variant U9A C33G, the self-cleavage turned out to be 0.0692. As for U9A C33A, the self-cleavage came to 0.185. As for A8U U37A, the self-cleavage amounted to 0.201. The figure for A8U U37C is 0.87.

(Values after the RNAGym collection of RNA variant scans (doi:10.7554/elife.80360).)
